Among the data in paper PMC3061437 are repression of translation of Luc-BAT in an IVT assay values, retold here.

The target in the test is eukaryotic elongation factor-1 A1 (eEF1A1), purified (UniProt P68104).
Sequence of UniProt P68104 (P68104 whole entry): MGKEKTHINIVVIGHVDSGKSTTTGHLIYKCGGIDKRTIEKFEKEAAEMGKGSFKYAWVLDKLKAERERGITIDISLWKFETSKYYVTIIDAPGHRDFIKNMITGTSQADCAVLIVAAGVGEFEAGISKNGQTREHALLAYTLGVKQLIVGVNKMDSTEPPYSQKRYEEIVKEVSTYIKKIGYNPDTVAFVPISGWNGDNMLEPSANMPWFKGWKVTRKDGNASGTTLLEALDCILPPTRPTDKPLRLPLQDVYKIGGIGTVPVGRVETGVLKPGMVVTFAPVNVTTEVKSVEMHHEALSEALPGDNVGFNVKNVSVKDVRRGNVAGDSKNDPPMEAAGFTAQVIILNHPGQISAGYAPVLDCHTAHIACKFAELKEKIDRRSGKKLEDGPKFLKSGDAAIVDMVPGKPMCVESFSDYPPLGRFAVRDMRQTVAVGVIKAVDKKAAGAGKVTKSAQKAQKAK

Regarding “hnRNP E1 KH1 domain expressed as GST-fusion product (domain or fragment)”, the repression of translation of Luc-BAT in an IVT assay is 70%.

The substance “recombinant full-length (FL) hnRNP E1 expressed as a GST-fusion product (from UniProt Q15365 1-356) (natural protein)” had a repression of translation of Luc-BAT in an IVT assay of more than 80%.
